Laboratory results published in publication PMC9061262, “Structural basis of the strict specificity of a bacterial GH31 α-1,3-glucosidase for nigerooligosaccharides” (The Journal of Biological Chemistry, 2022).

Legend:
LlGH31_u1 = target: T1, LlGH31_u1 (Lactococcus cremoris, UniProt A2RM80); assay: X-ray crystal structure of complex (soaked); type: binding; conditions: 100 mM glucose soak, 45 min; subsite −1; both α- and β-anomers modelled
T1 construct: gene xylS; full length (no signal peptide), N-terminal His tag, pET28a, E. coli BL21(DE3); Tyr99 of the adjacent protomer reaches the active site
T1 sequence (A2RM80 1-739): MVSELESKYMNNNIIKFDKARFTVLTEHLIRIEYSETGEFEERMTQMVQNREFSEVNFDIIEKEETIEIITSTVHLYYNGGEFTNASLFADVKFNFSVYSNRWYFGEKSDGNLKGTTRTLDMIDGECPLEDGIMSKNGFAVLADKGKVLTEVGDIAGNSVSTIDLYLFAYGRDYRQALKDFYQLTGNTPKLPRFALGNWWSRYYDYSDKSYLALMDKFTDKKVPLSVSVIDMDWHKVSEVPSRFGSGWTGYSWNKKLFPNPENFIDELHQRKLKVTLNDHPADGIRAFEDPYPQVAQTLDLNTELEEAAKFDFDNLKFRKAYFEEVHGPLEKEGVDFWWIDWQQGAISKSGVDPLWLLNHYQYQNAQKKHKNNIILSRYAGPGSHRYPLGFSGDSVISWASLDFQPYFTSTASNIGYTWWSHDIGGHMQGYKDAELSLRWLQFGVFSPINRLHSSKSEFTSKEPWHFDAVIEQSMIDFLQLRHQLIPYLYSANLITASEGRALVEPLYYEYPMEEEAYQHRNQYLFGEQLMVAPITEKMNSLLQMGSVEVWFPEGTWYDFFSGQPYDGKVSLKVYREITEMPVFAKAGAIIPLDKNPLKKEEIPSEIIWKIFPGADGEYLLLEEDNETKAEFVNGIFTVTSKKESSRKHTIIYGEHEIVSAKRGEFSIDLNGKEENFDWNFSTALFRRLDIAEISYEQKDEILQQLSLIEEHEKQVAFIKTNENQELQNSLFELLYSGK

[1] = target: GH31_u1 protein from Lactococcus lactis subsp. cremoris MG1363 (LlGH31_u1), wild type (Lactococcus lactis subsp. cremoris MG1363); assay: cryo-EM structure; single-particle analysis; 1.13 μM (as a hexamer) in 20 mM sodium phosphate buffer (pH 7.0), 300 mM NaCl
[2] = target: GH31_u1 protein from Lactococcus lactis subsp. cremoris MG1363 (LlGH31_u1), wild type (Lactococcus lactis subsp. cremoris MG1363); assay: SEC; gel filtration on HiLoad 16/60 Superdex 200 prep grade for molecular weight determination; 20 mM sodium phosphate buffer (pH 7.0), 300 mM NaCl
[3] = target: GH31_u1 protein from Lactococcus lactis subsp. cremoris MG1363 (LlGH31_u1), wild type (Lactococcus lactis subsp. cremoris MG1363); assay: crystal structure; hanging-drop vapor diffusion at 20 °C, PEG 3350, sodium citrate pH 7.0; crystal form 1 (P2_(1), six molecules in the asymmetric unit) and crystal form 2 (P6_(3)22, one molecule, hexamer by symmetry); unliganded, glucose-soaked or cocrystallised with 10 mM ligands
[4] = system: O=[N+]([O-])c1ccc(O[C@H]2O[C@H](CO)[C@@H](O)[C@H](O)[C@H]2O)cc1; assay: purified protein; conditions: 50 mM sodium phosphate pH 7.0, 50 mM NaCl
purified protein = substrate: O=[N+]([O-])c1ccc(O[C@H]2O[C@H](CO)[C@@H](O)[C@H](O)[C@H]2O)cc1; assay: purified protein; conditions: 50 mM sodium phosphate pH 7.0, 50 mM NaCl; remark: listed apart in the source

`OC[C@H]1OC(O)[C@H](O)[C@@H](O)[C@@H]1O` (some centres unmarked) [glucose] was tested, and the “X-ray crystal structure of complex (soaked)” value (LlGH31_u1) was “we determined the crystal structure of WT in complex with glucose (WT-Glc)”.

Molecule “GH31_u1 protein from Lactococcus lactis subsp. cremoris MG1363 (LlGH31_u1), wild type (enzyme)” has a stoichiometry N [1] of 6, a stoichiometry N [2] of 6 and a stoichiometry N [3] of 6.

In the case of “LlGH31_u1 (Lactococcus cremoris subsp. cremoris MG1363; Y99F)”, the Km [4] is reported as 28 ± 0.8 mM.

B1: LlGH31_u1 (Lactococcus cremoris subsp. cremoris MG1363) (protein)
chain: MVSELESKYMNNNIIKFDKARFTVLTEHLIRIEYSETGEFEERMTQMVQNREFSEVNFDIIEKEETIEIITSTVHLYYNGGEFTNASLFADVKFNFSVYSNRWYFGEKSDGNLKGTTRTLDMIDGECPLEDGIMSKNGFAVLADKGKVLTEVGDIAGNSVSTIDLYLFAYGRDYRQALKDFYQLTGNTPKLPRFALGNWWSRYYDYSDKSYLALMDKFTDKKVPLSVSVIDMDWHKVSEVPSRFGSGWTGYSWNKKLFPNPENFIDELHQRKLKVTLNDHPADGIRAFEDPYPQVAQTLDLNTELEEAAKFDFDNLKFRKAYFEEVHGPLEKEGVDFWWIDWQQGAISKSGVDPLWLLNHYQYQNAQKKHKNNIILSRYAGPGSHRYPLGFSGDSVISWASLDFQPYFTSTASNIGYTWWSHDIGGHMQGYKDAELSLRWLQFGVFSPINRLHSSKSEFTSKEPWHFDAVIEQSMIDFLQLRHQLIPYLYSANLITASEGRALVEPLYYEYPMEEEAYQHRNQYLFGEQLMVAPITEKMNSLLQMGSVEVWFPEGTWYDFFSGQPYDGKVSLKVYREITEMPVFAKAGAIIPLDKNPLKKEEIPSEIIWKIFPGADGEYLLLEEDNETKAEFVNGIFTVTSKKESSRKHTIIYGEHEIVSAKRGEFSIDLNGKEENFDWNFSTALFRRLDIAEISYEQKDEILQQLSLIEEHEKQVAFIKTNENQELQNSLFELLYSGK
B1 showed a Km (purified protein) of 20 ± 0.8 mM, a kcat (purified protein) of 31 s⁻¹ and a kcat/Km (purified protein) of 1500 M⁻¹ s⁻¹.
